Data as given in patent US10131702B2, “Glucagon-GLP-1-GIP triple agonist compounds” (priority 2013, dated 2018).
Numbered stars: 1 amine (or outer) side, 2 acyl side, 3 side chain; on linkers, the order of the positions; unused ones are H or OH. Square brackets hold non-standard residues; d marks the D form. Side chains are listed from the residue outwards. * marks the point of attachment. γGlu = O=C(O)[C@H](CCC(=O)[*:2])N[*:1]; Palmitoyl = CCCCCCCCCCCCCCCC(=O)*; Aib = CC(C)(N)C(=O)O

T1: human GIP receptor (human, UniProt P48546 22-466)
T1 sequence: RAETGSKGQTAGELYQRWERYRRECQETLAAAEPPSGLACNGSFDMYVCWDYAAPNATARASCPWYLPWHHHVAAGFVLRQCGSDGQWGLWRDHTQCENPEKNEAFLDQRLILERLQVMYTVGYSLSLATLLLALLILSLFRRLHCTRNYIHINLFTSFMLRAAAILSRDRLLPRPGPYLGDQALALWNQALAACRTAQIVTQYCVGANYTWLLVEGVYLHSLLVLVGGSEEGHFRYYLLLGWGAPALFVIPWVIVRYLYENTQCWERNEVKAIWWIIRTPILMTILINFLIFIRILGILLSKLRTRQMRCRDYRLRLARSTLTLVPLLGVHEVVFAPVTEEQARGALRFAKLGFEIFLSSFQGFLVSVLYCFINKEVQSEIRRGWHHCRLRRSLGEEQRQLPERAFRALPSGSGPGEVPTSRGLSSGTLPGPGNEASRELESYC

B1: Compound 3 (peptide)
peptide: YAQGTFTSDYSKYLDSKAAHDFVEWLLRA
HELM: PEPTIDE1{Y.[Aib].Q.G.T.F.T.S.D.Y.S.K.Y.L.D.S.K.A.A.H.D.F.V.E.W.L.L.R.A.[am]}$$$$V2.0
SMILES: CC(C)C[C@H](NC(=O)[C@H](CC(C)C)NC(=O)[C@H](Cc1c[nH]c2ccccc12)NC(=O)[C@H](CCC(=O)O)NC(=O)[C@@H](NC(=O)[C@H](Cc1ccccc1)NC(=O)[C@H](CC(=O)O)NC(=O)[C@H](Cc1c[nH]cn1)NC(=O)[C@H](C)NC(=O)[C@H](C)NC(=O)[C@H](CCCCN)NC(=O)[C@H](CO)NC(=O)[C@H](CC(=O)O)NC(=O)[C@H](CC(C)C)NC(=O)[C@H](Cc1ccc(O)cc1)NC(=O)[C@H](CCCCN)NC(=O)[C@H](CO)NC(=O)[C@H](Cc1ccc(O)cc1)NC(=O)[C@H](CC(=O)O)NC(=O)[C@H](CO)NC(=O)[C@@H](NC(=O)[C@H](Cc1ccccc1)NC(=O)[C@@H](NC(=O)CNC(=O)[C@H](CCC(N)=O)NC(=O)C(C)(C)NC(=O)[C@@H](N)Cc1ccc(O)cc1)[C@@H](C)O)[C@@H](C)O)C(C)C)C(=O)N[C@@H](CCCNC(=N)N)C(=O)N[C@@H](C)C(N)=O
B2: Compound 1 (peptide)
peptide: H-YSQGTFTSDYSKYLDSKAAHDFVEWLLRA-NH2
B3: Compound 5 (peptide)
peptide: YAQGTFTSDYSIYLDSKAAHDFVEWLLSA
HELM: PEPTIDE1{Y.[Aib].Q.G.T.F.T.S.D.Y.S.I.Y.L.D.S.K.A.A.H.D.F.V.E.W.L.L.S.A.[am]}$$$$V2.0
SMILES: CC[C@H](C)[C@H](NC(=O)[C@H](CO)NC(=O)[C@H](Cc1ccc(O)cc1)NC(=O)[C@H](CC(=O)O)NC(=O)[C@H](CO)NC(=O)[C@@H](NC(=O)[C@H](Cc1ccccc1)NC(=O)[C@@H](NC(=O)CNC(=O)[C@H](CCC(N)=O)NC(=O)C(C)(C)NC(=O)[C@@H](N)Cc1ccc(O)cc1)[C@@H](C)O)[C@@H](C)O)C(=O)N[C@@H](Cc1ccc(O)cc1)C(=O)N[C@@H](CC(C)C)C(=O)N[C@@H](CC(=O)O)C(=O)N[C@@H](CO)C(=O)N[C@@H](CCCCN)C(=O)N[C@@H](C)C(=O)N[C@@H](C)C(=O)N[C@@H](Cc1c[nH]cn1)C(=O)N[C@@H](CC(=O)O)C(=O)N[C@@H](Cc1ccccc1)C(=O)N[C@H](C(=O)N[C@@H](CCC(=O)O)C(=O)N[C@@H](Cc1c[nH]c2ccccc12)C(=O)N[C@@H](CC(C)C)C(=O)N[C@@H](CC(C)C)C(=O)N[C@@H](CO)C(=O)N[C@@H](C)C(N)=O)C(C)C
B4: Compound 2 (peptide)
peptide: H-Y[Aib]QGTFTSDYSKYLDSK([γGlu-Palmitoyl])AAHDFVEWLLSA-NH2

Each binder was assayed against T1, human GIP receptor (assay: cell-based or functional assay).

Row | Binder | EC50 (cAMP induction)
1 | B1 | 0.13 nM
2 | B2 | 0.38 nM
3 | B3 | 0.17 nM
4 | B4 | 0.35 nM

These binders were tested against T2, human glucagon-like peptide 1 receptor (human, UniProt P43220 24-463) (assay: cell-based or functional assay).

Row | Binder | EC50 (cAMP induction)
5 | B1 | 0.015 nM
6 | B2 | 0.033 nM
7 | B3 | 0.0092 nM
8 | B4 | 0.089 nM

Each binder was assayed against T3, human glucagon receptor (human, UniProt P47871 26-477) (assay: cell-based or functional assay).
T3 sequence (P47871 26-477): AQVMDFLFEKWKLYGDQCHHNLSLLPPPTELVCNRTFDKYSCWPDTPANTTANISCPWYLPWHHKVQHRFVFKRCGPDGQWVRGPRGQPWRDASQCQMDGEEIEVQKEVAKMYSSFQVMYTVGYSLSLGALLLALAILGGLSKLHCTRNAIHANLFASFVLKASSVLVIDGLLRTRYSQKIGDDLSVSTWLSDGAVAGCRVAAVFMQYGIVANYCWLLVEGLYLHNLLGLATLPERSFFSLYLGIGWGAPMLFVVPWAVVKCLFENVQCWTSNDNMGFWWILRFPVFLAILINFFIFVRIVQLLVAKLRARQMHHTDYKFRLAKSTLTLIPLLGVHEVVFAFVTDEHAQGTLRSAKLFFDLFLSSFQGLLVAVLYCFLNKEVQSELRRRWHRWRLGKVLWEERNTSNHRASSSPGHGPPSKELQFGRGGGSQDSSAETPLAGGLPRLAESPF

Row | Binder | EC50 (cAMP induction)
9 | B1 | 0.022 nM
10 | B2 | 0.013 nM
11 | B3 | 0.065 nM
12 | B4 | 0.046 nM

Target: T1, human GIP receptor
Experiment: cell-based or functional assay
Remark: another data set of the same source

Row | Binder | EC50 (cAMP induction)
13 | B1 | 0.015 nM
14 | B2 | 0.033 nM
15 | B3 | 0.009 nM
16 | B4 | 0.089 nM

Target: T2, human glucagon-like peptide 1 receptor
Experiment: cell-based or functional assay
Remark: another data set of the same source

Row | Binder | EC50 (cAMP induction)
17 | B1 | 0.022 nM
18 | B2 | 0.013 nM
19 | B3 | 0.065 nM
20 | B4 | 0.046 nM

Target: T3, human glucagon receptor
Experiment: cell-based or functional assay
Remark: another data set of the same source

Row | Binder | EC50 (cAMP induction)
21 | B1 | 0.022 nM
22 | B2 | 0.013 nM
23 | B3 | 0.065 nM
24 | B4 | 0.046 nM
